In US20250388666A1 (BRIGHAM AND WOMEN S HOSPITAL, published 2025):
Positions count from the first letter of the chain named. Numbers in names are those of the source.

T1: CEACAM1 (Sino Biological) (human, UniProt P13688 35-428, limits assumed)
T1 construct: may be the same as CEACAM1-HIS; also called hCEACAM1; biotinylated soluble CEACAM1
T1 sequence: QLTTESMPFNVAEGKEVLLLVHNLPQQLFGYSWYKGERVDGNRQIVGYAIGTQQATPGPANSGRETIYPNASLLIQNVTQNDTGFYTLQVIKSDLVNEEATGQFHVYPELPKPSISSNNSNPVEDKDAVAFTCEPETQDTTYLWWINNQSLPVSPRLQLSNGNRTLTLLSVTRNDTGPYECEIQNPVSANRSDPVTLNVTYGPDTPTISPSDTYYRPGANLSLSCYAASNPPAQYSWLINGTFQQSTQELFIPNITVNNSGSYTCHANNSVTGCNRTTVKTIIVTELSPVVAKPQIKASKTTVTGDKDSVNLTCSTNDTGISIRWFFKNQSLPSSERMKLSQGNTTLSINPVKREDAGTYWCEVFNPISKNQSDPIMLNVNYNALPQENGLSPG

B1: He6/Parent VL (antibody, IgG4, V domains shown)
VH: EVQLLESGGGLVQPGGSLRLSCAASGFSFSDYYLYWVRQAPGKGLEWVATISVGGGQTSYADSVKGRFTISRDNSKNTLYLQMNSLRAEDTAMYYCARARTYGPAWFAYWGQGTLVTVSS
VL: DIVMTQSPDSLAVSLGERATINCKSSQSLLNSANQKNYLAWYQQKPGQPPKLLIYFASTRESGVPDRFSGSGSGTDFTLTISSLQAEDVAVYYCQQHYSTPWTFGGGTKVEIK
notes: IgG4 S241P, kappa
B2: He9/L5 (antibody, IgG4, V domains shown)
VH: B1 VH with R100M, T101Y
VL: DIVMTQSPDSLAVSLGERATINCKSSQSLLNSANQKNYLAWYQQKPGQPPKLLIYFASTRESGVPDRFSGSGSGTDFTLTISSLQAEDVAVYYCQSHYPFAFTFGGGTKVEIK
notes: IgG4 S241P, kappa
B3: He9/L20 (antibody, IgG4, V domains shown)
VH: B1 VH with R100M, T101Y
VL: B2 VL with Y98F, F100Y, A101P, F102L
notes: IgG4 S241P, kappa
B4: He13/L5 (antibody, IgG4, V domains shown)
VH: B1 VH with A97T, A99G, R100L, T101Y, A105S, F107L
VL: B2 VL
notes: IgG4 S241P, kappa
B5: He13/L4 #1 (antibody, IgG4, V domains shown)
VH: B1 VH with A97T, A99G, R100L, T101Y, A105S, F107L
VL: B2 VL with Y98F, F100Y, A101Y, F102Y
notes: IgG4 S241P, kappa
B6: He9/L19 (antibody, IgG4, V domains shown)
VH: B1 VH with R100M, T101Y
VL: B2 VL with Y98I, P99Y, F100P, A101N
notes: IgG4 S241P, kappa
B7: He9/L16 (antibody, IgG4, V domains shown)
VH: B1 VH with R100M, T101Y
VL: B2 VL with F100Y, A101P
notes: IgG4 S241P, kappa
B8: He9/L4 #1 (antibody, IgG4, V domains shown)
VH: B1 VH with R100M, T101Y
VL: B2 VL with Y98F, F100Y, A101Y, F102Y
notes: IgG4 S241P, kappa
B9: He13/L3 (antibody, IgG4, V domains shown)
VH: B1 VH with A97T, A99G, R100L, T101Y, A105S, F107L
VL: B2 VL with Y98F, A101P
notes: IgG4 S241P, kappa
B10: He9/L2 (antibody, IgG4, V domains shown)
VH: B1 VH with R100M, T101Y
VL: B2 VL with A101P, F102Y
notes: IgG4 S241P, kappa
B11: He9/Parent VL (antibody, IgG4, V domains shown)
VH: B1 VH with R100M, T101Y
VL: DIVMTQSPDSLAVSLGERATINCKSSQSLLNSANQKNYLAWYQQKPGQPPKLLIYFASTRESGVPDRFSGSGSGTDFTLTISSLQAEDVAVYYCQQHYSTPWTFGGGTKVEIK
notes: IgG4 S241P, kappa
B12: He13/L1 (antibody, IgG4, V domains shown)
VH: B1 VH with A97T, A99G, R100L, T101Y, A105S, F107L
VL: B2 VL with A101Y, F102Y
notes: IgG4 S241P, kappa
B13: He9/L18 (antibody, IgG4, V domains shown)
VH: B1 VH with R100M, T101Y
VL: B2 VL with Y98F, F100Y, A101P
notes: IgG4 S241P, kappa
B14: He13/L4#2 (antibody, IgG4, V domains shown)
VH: B1 VH with A97T, A99G, R100L, T101Y, A105S, F107L
VL: B2 VL with F100Y, A101P, F102Y
notes: IgG4 S241P, kappa
B15: He13/L2 (antibody, IgG4, V domains shown)
VH: B1 VH with A97T, A99G, R100L, T101Y, A105S, F107L
VL: B2 VL with A101P, F102Y
notes: IgG4 S241P, kappa
B16: He9/L1 (antibody, IgG4, V domains shown)
VH: B1 VH with R100M, T101Y
VL: B2 VL with A101Y, F102Y
notes: IgG4 S241P, kappa

Target: T1, CEACAM1 (Sino Biological)
Experiment: SPR single-cycle
Experimental: To assess the binding of the humanized affinity matured IgGs, single cycle kinetics analysis was performed on crude supernatants using a Biacore T200 running Biacore T200 Control Software V2.0.1 and Biacore T200 Evaluation Software V3.0 (Uppsala, Sweden). Antibodies were diluted in HBS-P+ (GE Healthcare) to a final concentration of […]. At the start of each cycle, antibodies were loaded onto Fc2, Fc3 and Fc4 of the Protein A chip (GE Healthcare). IgGs were captured at a flow rate of 10 μl/min to give an immobilization level (RL) of ˜100 RU (a level calculated to obtain an Rmax of ˜50-150 RU once the analyte is bound). The surface was then allowed to stabilize. Single cycle kinetics data was obtained with CEACAM1 as the analyte at a flow rate of […] to minimize any potential mass transfer effects. Multiple repeats with the parent (VH2 N56Q/Vκ4 S27(f)A) antibody were performed to check the stability of the surface and analyte over the kinetic cycles. The signal from the reference channel Fc1 (no antibody) was subtracted from that of Fc2, Fc3 and Fc4 to correct for differences in non-specific binding to the reference surface. A three point, two-fold dilution range from 25 nM to 100 nM CEACAM 1 without regeneration between each concentration was used. The signal from each antibody blank run (no CEACAM1) was subtracted to correct for differences in surface stability. The association phase for the three injections of increasing concentrations of CEACAM1 was monitored for 200 seconds each time and a single dissociation phase was measured for 300 seconds following the last injection of CEACAM1. Regeneration of the Protein A surface was conducted using two injections of 10 mM glycine-HCL pH 1.5 followed by a stabilization period of 240 seconds.

| Kd [µM] | fold better than Parent (KD) [fold] | Binder |
| --- | --- | --- |
| 0.125 | 1.27 | B1 |
| 0.044 | 3.61 | B2 |
| 0.044 | 3.61 | B3 |
| 0.095 | 1.68 | B4 |
| 0.115 | 1.38 | B5 |
| 0.193 | 0.82 | B6 |
| 0.032 | 5.05 | B7 |
| 0.078 | 2.05 | B8 |
| 0.108 | 1.47 | B9 |
| 0.07 | 2.27 | B10 |
| 0.262 | 0.61 | B11 |
| 0.126 | 1.26 | B12 |
| 0.036 | 4.4 | B13 |
| 0.289 | 1.91 | B14 |
| 0.098 | 1.62 | B15 |
| 0.069 | 2.32 | B16 |
